Results as given in patent publication US11819540B2, “Methods for treating and preventing neutrophil-derived net toxicity and thrombosis” (CHILDREN'S MEDICAL CENTER CORPORATION, priority 2011, dated 2023).

Columns and labels:
Assay type in all cases: in vivo, mouse
[1] = tested on: flow restriction-induced DVT in mice; assay: IVC stenosis (flow restriction) model of deep vein thrombosis
From the text: Mice were anesthetized by isoflurane-oxygen mixture and placed in a supine position. After laparotomy, intestines were exteriorized and warm sterile saline was applied during the whole procedure to prevent drying. After gentle separation from aorta, IVC was ligated over a 30 G needle by a 7.0 polypropylene suture immediately below the renal veins (towards the tail) and then the needle was removed. The needle was placed outside the vessel so that piercing or any other injury to the IVC wall was completely avoided. This procedure allows for standardized flow restriction without endothelial injury. All visible side branches (usually 1 or 2) were also ligated. After surgery, peritoneum and skin were closed by monofilament absorbable suture and 6.0 silk, respectively. Mice were euthanized after 6 h or 48 h and thrombi developed in the IVC below the suture (towards the tail) were taken for analysis.
All mice were treated with DNaseI (Pulmozyme®) immediately after surgery and mice with 48 h IVC stenosis received 3 additional injections every 12 hours. The dose of every injection was 50 μg i.p. (50 μl of non-diluted Pulmozyme) and 10 μg i.v. (in 50 μl of sterile saline) in retro-orbital plexus. Control mice were injected with the same volume of DNase buffer (8.77 mg/ml sodium chloride and 0.15 mg/ml calcium chloride in sterile water for injections).
Flow restriction model. The murine model of DVT was performed as described. […] A suture was placed on the IVC just below the renal veins over a spacer (diameter of 0.26 mm) and then the spacer was removed. […] All visible IVC side branches were also sutured. Thereafter, peritoneum and skin were closed, mice were sacrificed after 1-48 h and thrombi formed in the IVC were harvested. Sham-operated mice were opened and IVC sutured similarly to the experimental mice, but the suture was removed immediately after ligation.
Histone infusion. A mixture of all histones isolated from calf thymus (Worthington, Lakewood, NJ, USA) was dissolved in sterile saline and infused intravenously in mice immediately before IVC stenosis application. The dose used (10 mg kg^−1) is known to produce a 25% decrease in platelet count 10 min after infusion. The infused solution of histone mix was essentially endotoxin-free (<0.025 EU mL^−1; measured using the endotoxin detection kit [Lonza, Walkersville, MD, USA] according to the manufacturer's instructions). Control mice received infusion of sterile saline. Mice were sacrificed 1 h after surgery and thrombus formation was examined.
DNase 1 infusion. DNase 1 (PULMOZYME®, Genentech, San Francisco, CA, USA) was diluted in sterile saline and injected immediately after surgery (50 μg intraperitoneally and 10 μg intravenously). In experiments with 48 h IVC stenosis, injections were repeated three more times after every 12 h. Control mice were injected with the PULMOZYME™ vehicle buffer (8.77 mg mL^−1 sodium chloride and 0.15 mg mL^−1 calcium chloride) diluted in sterile saline.

[2] = tested on: ischemic stroke (tMCAO) in mice; assay: Transient middle cerebral artery occlusion (tMCAO) stroke model
Description: Next, the question of whether cerebral ischemia/reperfusion injury effects circulating levels of NETs was addressed. Wild-type C57BL/6 mice were subjected to 2 hours of transient middle cerebral artery occlusion (tMCAO), followed by 22 hours of reperfusion. Focal cerebral ischemia was induced by 60 or 120 min tMCAO. Mice were anesthetized with 2% isoflurane/oxygen mixture. Following a midline skin incision in the neck, the proximal common carotid artery, and the external carotid artery were ligated, and a standardized silicon rubber-coated 6.0 nylon monofilament (6021; Doccol Corp., Redlands, CA) was inserted and advanced via the right internal carotid artery to occlude the origin of the right MCA. […] The intraluminal suture was left in situ during the complete occlusion time. Then animals were re-anesthetized, and the occluding monofilament was withdrawn to allow reperfusion. In animals undergoing a sham treatment, the exact same procedure was followed except that the monofilament was only inserted three quarters of the normal distance that is necessary to occlude the MCA, after which it was immediately withdrawn. Some animals were exclusively used for laser-Doppler flowmetry (Periflux 5000, Perimed, Kings Park, NY) to monitor regional cerebral blood flow (rCBF) in the MCA territory.
Wild type (WT) and […] mice were subjected to 1 h of tMCAO and 23 h of reperfusion after which mice and brains were analyzed. Mice were killed 24 hours after initiation of tMCAO. Brains were quickly removed and cut into 2-mm-thick coronal sections using a mouse brain slice matrix. The slices were stained with 2% 2,3,5-triphenyl-tetrazolium chloride (TTC; Sigma-Aldrich, St. Louis, MO) in PBS to visualize the infarctions. Sections were photographed with a digital Nikon D70 camera and infarct areas (white) were measured blindly using Image J software (National Institutes of Health). Brain infarct volumes were measured by planimetry (FIG. 9A). Compared to the wild-type controls, DNase-1^−/− mice developed larger brain infarctions (84.10±7.24 mm^3 versus 58.50±4.04 mm^3, p<0.05, FIG. 9A).
Neurological function was assessed, blinded for the mouse genotype 24 h, after initiation of tMCAO, using the modified Bederson score (Bederson et al., Stroke 1986 17:472-6). This test determines global neurological function according to the following scoring system: 0, no deficit; 1, forelimb flexion; 2, decreased resistance to lateral push; 3, unidirectional circling; 4, longitudinal spinning; 5, no movement. The grip test was performed as described (Moran et al., PNAS 1995 92:5341-5). A mouse was placed on a wooden bar (3 mm in diameter, 40 cm long) that is attached to two vertical supports 40 cm above a flat surface. When placing the mouse at a point midway between the supports, the experiment was rated according to the following system: 0, falls off; 1, hangs onto bar by two forepaws; 2, as for 1, but attempts to climb onto bar; 3, hangs onto bar by two forepaws plus one or both hindpaws; 4, hangs onto bar by all four paws plus tail wrapped around bar; 5, escape (where mouse was able to work its way to one of the supports). […] The turns in one versus the other direction were recorded from ten trials for each test. Turning movements that were not part of a rearing movement were not scored. […]

[3] = tested on: TRALI in BALB/c mice; assay: Two-event (LPS + anti-H-2Kd mAb) TRALI model; conditions: i.v. administration
[4] = 6 h and 48 h IVC stenosis, vs vehicle
[5] = rhDNase-1 vs vehicle, 24 h, p<0.05

B1: rhDNase-1: recombinant human DNase-1 (Dornase alpha, Pulmozyme, Genentech) (protein, UniProt P24855 23-282, looked up)
Deoxyribonuclease-1: LKIAAFNIQTFGETKMSNATLVSYIVQILSRYDIALVQEVRDSHLTAVGKLLDNLNQDAPDTYHYVVSEPLGRNSYKERYLFVYRPDQVSAVDSYYYDDGCEPCGNDTFNREPAIVRFFSRFTEVREFAIVPLHAAPGDAVAEIDALYDVYLDVQEKWGLEDVMLMGDFNAGCSYVRPSQWSSIRLWTSPTFQWLIPDSADTTATPTHCAYDRIVVAGMLLRGAVVPDSALPFNFQAAYGLSDQLAQAISDHYPVEVMLK
protection from DVT (thrombus incidence) ([1]; 6 h and 48 h IVC stenosis): protected mice from flow restriction-induced DVT | thrombus length [1, 4]: significantly reduced | thrombus weight [1, 4]: significantly reduced | protection from DVT (thrombus incidence) ([1]; 6 h and 48 h IVC stenosis, listed as DNaseI): greatly reduces the incidence of thrombosis | mice that developed a thrombus ([1]; 48 h IVC stenosis, 50 μg i.p. and 10 μg i.v. every 12 h, 2 of 12, vehicle 5 of 8): 17% | brain infarct volume ([2]; 1 h tMCAO, 23 h reperfusion, 50 μg i.p. 15 min before surgery and 12 h later, 10 μg i.v. 5 min before reperfusion, vehicle 81.45±9.08): 50.67±8.74 mm^3 | infarct size smaller than vehicle ([2]; 1 h tMCAO, 23 h reperfusion, rhDNase-1 vs vehicle): approximately 40% | Bederson test score [2, 5]: significantly better | corner test result [2, 5]: significantly better | grip test score [2, 5]: significantly better | TRALI outcome [3]: did not improve TRALI outcome
